Tests used:
Experiment in all cases: reported; reported KD
[1] = target: mFcgRIII
[2] = target: mFcgRIV
[3] = target: mFcRn
[4] = target: mFcgRIIb

Kd [1] | Kd [2] | Kd [3] | Kd [4] | Substance
9300 nM | 280 nM | 72 nM | 1100 nM | hIgG1
9700 nM | – | 63 nM | 7900 nM | hIgG2
1300 nM | 170 nM | 230 nM | 700 nM | hIgG3
21000 nM | 26000 nM | 116 nM | 11000 nM | hIgG4
3200 nM | – | 1160 nM | 301 nM | mIgG1
1460 nM | 34.5 nM | 490 nM | 2390 nM | mIgG2a
1560 nM | 59 nM | 545 nM | 448 nM | mIgG2b
– | – | 140 nM | – | mIgG3

Reference: patent US20190300610A1
